According to patent US20140072613A1 (published 2014):

What was measured:
Experiment in all cases: cell-based or functional assay
PKCι(h) = molecular target: T1, PKCι(h) (human, UniProt P41743 1-596)
T1 sequence (looked up): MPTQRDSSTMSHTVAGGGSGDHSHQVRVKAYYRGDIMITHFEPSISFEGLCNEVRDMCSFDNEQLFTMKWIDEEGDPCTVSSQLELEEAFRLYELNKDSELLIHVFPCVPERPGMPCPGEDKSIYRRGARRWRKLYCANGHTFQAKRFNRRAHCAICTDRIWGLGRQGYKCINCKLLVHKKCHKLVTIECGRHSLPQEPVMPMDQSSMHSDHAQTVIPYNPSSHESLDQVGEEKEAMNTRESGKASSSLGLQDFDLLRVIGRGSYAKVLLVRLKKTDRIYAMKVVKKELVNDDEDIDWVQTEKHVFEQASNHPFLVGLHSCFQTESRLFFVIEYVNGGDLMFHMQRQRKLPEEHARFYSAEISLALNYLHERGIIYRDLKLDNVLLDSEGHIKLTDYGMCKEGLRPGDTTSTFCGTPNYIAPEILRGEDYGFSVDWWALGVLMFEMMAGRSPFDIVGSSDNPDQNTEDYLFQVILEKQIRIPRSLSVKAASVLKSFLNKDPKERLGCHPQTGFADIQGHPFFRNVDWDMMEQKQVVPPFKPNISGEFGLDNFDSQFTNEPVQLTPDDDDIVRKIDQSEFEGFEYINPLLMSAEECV

CDK1/cyclinB(h) = CDK1/cyclinB(h) (human, UniProt P06493 1-297; P14635 1-433)
EphA3(h) = molecular target: T2, EphA3(h) (human, UniProt P29320 566-983, limits assumed)
T2 sequence (looked up): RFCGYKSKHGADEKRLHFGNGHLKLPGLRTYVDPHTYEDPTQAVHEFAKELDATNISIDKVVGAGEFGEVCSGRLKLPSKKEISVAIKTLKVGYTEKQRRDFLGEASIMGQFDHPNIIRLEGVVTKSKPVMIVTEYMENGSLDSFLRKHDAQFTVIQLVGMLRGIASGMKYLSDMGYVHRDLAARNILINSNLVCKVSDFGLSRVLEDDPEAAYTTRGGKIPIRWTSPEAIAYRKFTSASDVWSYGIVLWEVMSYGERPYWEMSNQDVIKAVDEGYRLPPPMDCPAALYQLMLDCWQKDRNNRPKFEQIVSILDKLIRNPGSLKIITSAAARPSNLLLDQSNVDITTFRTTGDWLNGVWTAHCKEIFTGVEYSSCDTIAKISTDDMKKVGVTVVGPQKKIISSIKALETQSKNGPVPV

SGK2(h) = molecular target: T3, SGK2(h) (human, UniProt Q9HBY8 1-367, limits assumed)
T3 sequence (looked up): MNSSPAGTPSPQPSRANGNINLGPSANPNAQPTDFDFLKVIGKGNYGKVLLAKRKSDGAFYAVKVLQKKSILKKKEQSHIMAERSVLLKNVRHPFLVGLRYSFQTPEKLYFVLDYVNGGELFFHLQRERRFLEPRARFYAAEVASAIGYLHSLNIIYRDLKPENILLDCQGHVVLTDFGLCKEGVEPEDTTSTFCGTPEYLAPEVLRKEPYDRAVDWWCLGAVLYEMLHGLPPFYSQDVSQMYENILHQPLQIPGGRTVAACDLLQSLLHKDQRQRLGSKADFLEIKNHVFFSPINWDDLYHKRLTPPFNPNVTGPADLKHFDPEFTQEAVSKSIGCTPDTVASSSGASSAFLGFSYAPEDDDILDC

CLK3(h) = CLK3(h) (human, UniProt P49761 1-490, limits assumed)
PAK2(h) = PAK2(h) (human, UniProt Q13177 1-524)
EphA8(h) = molecular target: T4, EphA8(h) (human, UniProt P29322 564-1005, limits assumed)
T4 sequence (looked up): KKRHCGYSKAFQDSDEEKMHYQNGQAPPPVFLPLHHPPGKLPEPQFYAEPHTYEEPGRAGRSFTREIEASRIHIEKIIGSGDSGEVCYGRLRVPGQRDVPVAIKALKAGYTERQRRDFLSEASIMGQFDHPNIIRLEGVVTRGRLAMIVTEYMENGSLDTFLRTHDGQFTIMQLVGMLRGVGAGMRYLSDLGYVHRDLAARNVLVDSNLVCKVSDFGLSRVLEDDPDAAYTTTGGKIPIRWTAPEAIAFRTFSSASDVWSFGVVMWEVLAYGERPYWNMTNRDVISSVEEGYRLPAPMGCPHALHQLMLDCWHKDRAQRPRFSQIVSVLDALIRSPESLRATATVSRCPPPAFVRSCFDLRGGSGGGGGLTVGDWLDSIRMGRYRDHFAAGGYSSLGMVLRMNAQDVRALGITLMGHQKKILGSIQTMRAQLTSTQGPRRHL

EphB1(h) = molecular target: T5, EphB1(h) (human, UniProt P54762 564-984, limits assumed)
T5 sequence (looked up): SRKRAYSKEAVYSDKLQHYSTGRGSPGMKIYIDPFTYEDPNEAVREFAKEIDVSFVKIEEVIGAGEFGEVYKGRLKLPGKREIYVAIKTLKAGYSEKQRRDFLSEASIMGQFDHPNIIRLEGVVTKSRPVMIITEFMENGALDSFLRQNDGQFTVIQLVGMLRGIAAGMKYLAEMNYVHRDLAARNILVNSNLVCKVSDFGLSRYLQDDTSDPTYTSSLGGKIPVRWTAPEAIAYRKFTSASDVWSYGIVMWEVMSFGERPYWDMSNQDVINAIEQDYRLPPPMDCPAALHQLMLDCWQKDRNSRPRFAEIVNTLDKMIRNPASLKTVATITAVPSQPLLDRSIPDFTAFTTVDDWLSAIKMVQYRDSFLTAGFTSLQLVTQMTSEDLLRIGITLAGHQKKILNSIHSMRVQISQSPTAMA

MINK(h) = MINK(h) (human, UniProt Q8N4C8 1-320, limits assumed)
PRK2(h) = PRK2(h) (human, UniProt Q16513 501-984, limits assumed)
PKCα(h) = PKCα(h) (human, UniProt P17252 1-672)

CLK3(h), sequence (P49761 whole entry): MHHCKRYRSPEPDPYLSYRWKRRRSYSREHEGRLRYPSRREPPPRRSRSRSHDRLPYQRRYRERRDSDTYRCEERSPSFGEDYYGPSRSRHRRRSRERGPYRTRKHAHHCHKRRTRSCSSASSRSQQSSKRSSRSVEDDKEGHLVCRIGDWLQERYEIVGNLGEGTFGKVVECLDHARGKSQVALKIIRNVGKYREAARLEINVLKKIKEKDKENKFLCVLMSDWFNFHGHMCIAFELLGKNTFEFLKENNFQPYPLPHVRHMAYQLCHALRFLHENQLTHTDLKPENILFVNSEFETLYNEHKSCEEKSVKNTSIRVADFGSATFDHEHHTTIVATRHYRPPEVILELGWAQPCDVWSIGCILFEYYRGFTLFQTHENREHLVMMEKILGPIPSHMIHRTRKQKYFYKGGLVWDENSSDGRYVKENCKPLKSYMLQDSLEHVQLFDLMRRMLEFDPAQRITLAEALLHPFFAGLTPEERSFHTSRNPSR
CDK1/cyclinB(h), sequence (P06493 whole entry, chain 1 of 2): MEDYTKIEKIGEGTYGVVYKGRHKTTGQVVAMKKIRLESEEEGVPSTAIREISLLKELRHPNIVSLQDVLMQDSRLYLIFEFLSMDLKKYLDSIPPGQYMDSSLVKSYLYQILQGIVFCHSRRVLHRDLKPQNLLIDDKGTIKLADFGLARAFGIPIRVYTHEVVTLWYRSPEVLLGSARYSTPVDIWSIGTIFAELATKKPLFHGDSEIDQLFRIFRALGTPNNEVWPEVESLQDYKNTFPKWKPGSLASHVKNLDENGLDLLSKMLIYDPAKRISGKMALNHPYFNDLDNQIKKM
CDK1/cyclinB(h), sequence (P14635 whole entry, chain 2 of 2): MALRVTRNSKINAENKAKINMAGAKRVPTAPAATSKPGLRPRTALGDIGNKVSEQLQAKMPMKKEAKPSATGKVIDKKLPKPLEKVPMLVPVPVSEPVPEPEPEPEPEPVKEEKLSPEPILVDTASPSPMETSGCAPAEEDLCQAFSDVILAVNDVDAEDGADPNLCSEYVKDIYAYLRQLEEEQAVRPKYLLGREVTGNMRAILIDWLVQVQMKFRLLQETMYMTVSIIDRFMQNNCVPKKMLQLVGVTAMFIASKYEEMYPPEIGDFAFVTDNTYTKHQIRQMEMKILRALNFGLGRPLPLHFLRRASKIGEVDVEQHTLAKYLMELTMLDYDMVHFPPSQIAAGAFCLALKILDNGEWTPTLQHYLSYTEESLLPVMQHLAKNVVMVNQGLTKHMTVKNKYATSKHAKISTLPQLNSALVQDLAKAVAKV
PAK2(h), sequence (Q13177 whole entry): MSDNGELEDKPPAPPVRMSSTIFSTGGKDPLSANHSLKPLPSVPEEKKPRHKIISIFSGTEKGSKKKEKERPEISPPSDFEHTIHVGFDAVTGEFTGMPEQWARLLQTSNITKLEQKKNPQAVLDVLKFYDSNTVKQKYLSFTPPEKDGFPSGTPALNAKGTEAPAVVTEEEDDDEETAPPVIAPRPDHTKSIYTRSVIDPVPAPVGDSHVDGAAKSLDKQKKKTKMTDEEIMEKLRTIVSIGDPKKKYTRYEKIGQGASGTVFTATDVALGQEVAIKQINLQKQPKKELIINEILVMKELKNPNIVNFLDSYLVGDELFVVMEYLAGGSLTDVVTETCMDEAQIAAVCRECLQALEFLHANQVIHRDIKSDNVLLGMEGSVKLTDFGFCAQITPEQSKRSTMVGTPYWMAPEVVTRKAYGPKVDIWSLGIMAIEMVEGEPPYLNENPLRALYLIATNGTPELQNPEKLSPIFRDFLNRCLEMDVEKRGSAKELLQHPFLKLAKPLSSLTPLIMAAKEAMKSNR
MINK(h), sequence (Q8N4C8 1-320 limits assumed): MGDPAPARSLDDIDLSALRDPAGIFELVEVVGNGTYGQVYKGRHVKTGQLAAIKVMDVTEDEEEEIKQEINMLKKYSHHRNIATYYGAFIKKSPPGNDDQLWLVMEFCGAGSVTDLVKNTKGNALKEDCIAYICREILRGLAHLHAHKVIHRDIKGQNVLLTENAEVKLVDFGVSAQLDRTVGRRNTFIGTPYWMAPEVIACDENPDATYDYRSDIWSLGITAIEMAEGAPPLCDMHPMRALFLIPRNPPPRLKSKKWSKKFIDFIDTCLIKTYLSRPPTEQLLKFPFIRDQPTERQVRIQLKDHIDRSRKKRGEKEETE
PRK2(h), sequence (Q16513 501-984 limits assumed): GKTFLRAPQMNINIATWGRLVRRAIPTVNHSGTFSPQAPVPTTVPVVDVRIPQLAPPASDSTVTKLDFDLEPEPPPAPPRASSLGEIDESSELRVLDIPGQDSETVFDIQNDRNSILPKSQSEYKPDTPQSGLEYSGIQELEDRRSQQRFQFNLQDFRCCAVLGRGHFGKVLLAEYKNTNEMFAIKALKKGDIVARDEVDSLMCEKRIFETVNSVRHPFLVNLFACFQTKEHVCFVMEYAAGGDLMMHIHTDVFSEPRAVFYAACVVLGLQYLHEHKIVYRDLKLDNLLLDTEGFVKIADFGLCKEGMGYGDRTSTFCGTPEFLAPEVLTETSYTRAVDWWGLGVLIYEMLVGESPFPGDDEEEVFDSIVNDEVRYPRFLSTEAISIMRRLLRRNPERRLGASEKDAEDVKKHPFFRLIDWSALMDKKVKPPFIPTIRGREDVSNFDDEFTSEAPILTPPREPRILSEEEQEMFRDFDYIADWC

Binder	% activity, 100 µM (PKCι(h)) [%]	% activity, 100 µM (CDK1/cyclinB(h)) [%]	% activity, 100 µM (EphA3(h)) [%]	% activity, 100 µM (SGK2(h)) [%]	% activity, 100 µM (CLK3(h)) [%]	% activity, 100 µM (PAK2(h)) [%]	% activity, 100 µM (EphA8(h)) [%]	% activity, 100 µM (EphB1(h)) [%]	% activity, 100 µM (MINK(h)) [%]	% activity, 100 µM (PRK2(h)) [%]	% activity, 100 µM (PKCα(h)) [%]
KAFAKLAARLYRKALARQLGVAA [MMI-0400]	46	74	12	98	84	59	146	58	52	27	86
FAKLAARLYRKALARQLGVAA [MMI-0300]	68	73	6	56	61	65	93	44	48	33	89
